Results on three proteins are retold here after patent US20090170194A1 (GOVERNORS OF THE UNIVERSITY OF ALBERTA, published 2009).

Series [1] concerns the molecule itself. The series can be described thus: gel filtration chromatography with dTomato (dimer) and mCherry (monomer) as size standards (self-association). The text has this:
(§1) FIG. 4: Characterization of mTFP1 by Gel Filtration Chromatography. Gel filtration chromatography elution profile with detection at either 450 nm or 550 nm. The upper profile is a co-injection of dTFP0.2 and mCherry (Shaner, 2004) (a red monomer), the middle profile is dTomato (Shaner, 2004) (a red dimer) and mTFP1, and the lower profile is mTFP1 alone. The small 450 nm peak at the dimer elution volume is due to the weak absorbance of dTomato at this wavelength.
(§2) The non-oligomeric structure of mTFP variants was determined by gel filtration chromatography on a HiLoad 16/60 Superdex 75 pg gel filtration column. Samples of the dimeric dTomato and the monomeric mCherry proteins (Shaner, 2004) were expressed and purified as described above and used as size standards. The AKTA basic liquid chromatography system (GE Healthcare) can monitor multiple wavelengths simultaneously. Purified TFP variants were mixed with either dTomato or mcherry and their respective elution profiles monitored separately at 450 nm and 550 nm, respectively.
Background: SEC sorts molecules by how far they enter the pores of the column.

Series [2] deals with the molecule itself. Kind of series: self-association (homodimer); gel filtration chromatography (FIG. 4).
From the text: as §1, §2

Series [3] concerns the molecule itself. The series can be described thus: gel filtration chromatography (self-association). The method, then: as §2

Where a chain is given by its changes, count along the chain named. Names may count otherwise.

B1: mTFP1 (other)
chain: MVSKGEETTMGVIKPDMKIKLKMEGNVNGHAFVIEGEGEGKPYDGTNTINLEVKEGAPLPFSYDILTTAFAYGNRAFTKYPDDIPNYFKQSFPEGYSWERTMTFEDKGIVKVKSDISMEEDSFIYEIHLKGENFPPNGPVMQKKTTGWDASTERMYVRDGVLKGDVKHKLLLEGGGHHRVDFKTIYRAKKAVKLPDYHFVDHRIEILNHDKDYNKVTVYESAVARNSTDGMDELYK
notes: Engineered monomeric teal fluorescent protein derived from Clavularia cFP484; Expressed from pBAD/HisB and purified on Ni-NTA; also called mTFP1.0
As to B1, the binding result in series [1] is on record as “no binding”.

B2: dTFP0.2 (other)
chain: MVSKGEETTMGVIKPDMKIKLKMEGNVNGHAFVIEGEGEGKPYDGTNTVNLEVKEGAPLPFSYDILSNAFQYGNRAFTKYPDDIANYFKQSFPEGYSWERTMTFEDKGIVKVKSDISMEEDSFIYEIRLKGKNFPPNGPVMQKKTLKWEPSTEILYVRDGVLVGDISHSLLLEGGGHYRCDFKTIYKAKKVVKLPDYHFVDHRIEILNHDKDYNKVTLYENAVARYSLLPPQAGMDELYK
notes: dTFP0.1 with D81N and S226P; Vector His tag probably present; also called dTFP0.20
Take B2: the binding result in series [2] was “binds”.

B3: mTFP0.3 (other)
chain: B2 chain with S167K, S169K
notes: dTFP0.2 with S162K and S164K; reported as a monomer; Substitution positions follow the DsRed-consistent numbering; Vector His tag probably present
As to B3, the binding result in series [3] is listed as “no binding”.
